According to patent publication US20240294613A1 (BROAD INSTITUTE, published 2024):

B1: BG7-18 (antibody, V domains shown)
VH: EVQLMESGGGLIQPGGSLRLSCAASGFIVSSNYMSWVRQAPGKGLEWVSVIYSGGGTDYADSVKGRFTISRDNSKNTLFLQMNSLRAEDTAVYYCARGAAMVKELFDYWGQGTQVTVSS
VL: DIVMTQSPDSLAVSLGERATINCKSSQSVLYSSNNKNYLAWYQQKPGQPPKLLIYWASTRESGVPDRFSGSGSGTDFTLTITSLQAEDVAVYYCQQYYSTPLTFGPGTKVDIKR
B2: BG7-15 (antibody, V domains shown)
VH: QVQLVQSGAEVKKPGASVKVSCKASGYTFTSYAISWVRQAPGQGLEWMGWVSAYNGNTNYAQKLQGRVTMTTDTSTNTAYMELRSLRSDDTAIYYCAIPYSSVTFDCWGQGTLVTVSS
VL: EIVLTQSPGTLSLSPGERATLSCRASQSVSGTFLAWYQQKPGQAPRLLISGASSRATGIPDRFSGSGSGTDFTLTISRLEPEDFAVYYCQQYGSSRPTFGQGTKLEIKR

Target: SARS-COV-2 spike on authentic SARS-COV-2 virus (SARS-COV-2, UniProt P0DTC2 14-1273)
Assay: cell-based or functional assay

Row | Binder | LV IC50
1 | B1 | 0.115 µg/mL
2 | B2 | 0.114 µg/mL
